Measurements: IntAct's records for PubMed 19628817

B1: Succinate dehydrogenase assembly factor 2, mitochondrial (Homo sapiens), Q9NX18 (parent)
chain: MAVSTVFSTSSLMLALSRHSLLSPLLSVTSFRRFYRGDSPTDSQKDMIEIPLPPWQERTDESIETKRARLLYESRKRGMLENCILLSLFAKEHLQHMTEKQLNLYDRLINEPSNDWDIYYWATEAKPAPEIFENEVMALLRDFAKNKNKEQRLRAPDLEYLFEKPR

Variants of: B1
Conditions: with sdha_human SDHA

Variant | effect of a mutation on the interaction
MAVSTVFSTSSLMLALSRHSLLSPLLSVTSFRRFYRGDSPTDSQKDMIEIPLPPWQERTDESIETKRARLLYESRKRRMLENCILLSLFAKEHLQHMTEKQLNLYDRLINEPSNDWDIYYWATEAKPAPEIFENEVMALLRDFAKNKNKEQRLRAPDLEYLFEKPR [G78R] | disrupting interaction strength
